From US20260193348A1 (ANTENGENE BIOLOGICS, published 2026)
Residue numbers refer to the chain shown, from its start. Names may count otherwise.

B1: 40E9-L2H3 (antibody, V domains shown)
VH: EVQLVQSGAEVKKPGSSVKVSCKASGYTFSSYVIHWVRQAPGQCLEWMGYINPYNDVIKYNEKFKGRVTLTSDKSTSTAYMELSSLRSEDTAVYYCARDSYYSYDGFAYWGQGTLVTVSS
VL: EIVLTQSPDFQSVTPKEKVTITCSASSSVSYMHWYQQKPDQSPKRLIYDTSKLASGVPSRFSGSGSGTDFTLTINSLEAEDAATYYCQQWSSNPPTFGCGTKVEIK
notes: also called ch40E9-derived humanized antibody 40E9-L2H3
B2: 40E9-L2H3-N55S.H (antibody, V domains shown)
VH: B1 VH with N55S
VL: B1 VL
notes: also called 40E9-N55S
B3: ch40E9 (antibody, V domains shown)
VH: EVQLQLSGPELVKPGASVKMSCKASGYTFSSYVIHWVKQKPGQGLEWIGYINPYNDVIKYNEKFKGKATLTSDKSSSTAYMELSSLTSEDSAVYYCARDSYYSYDGFAYWGQGTLVTVSA
VL: QIVLTQSPAIMSASPGEKVTMTCSASSSVSYMHWYQQKSGTSPKRWIYDTSKLASGVPARFSGSGSGTSYSLTISSMEAEDAATYYCQQWSSNPPTFGGGTKVEIK
notes: also called 40-C12-C10-E9
B4: ATG201-D105R-19B (bispecific antibody, human IgG1, kappa, L234A L235A)
heavy 1: not shown
heavy 2: QVQLQQSGAELVRPGSSVKISCKASGYAFSSYWMNWVKQRPGQGLEWIGQIWPGDGDTNYNGKFKGKATLTADESSSTAYMQLSSLASEDSAVYFCARRETTTVGRYYYAMDYWGQGTTVTVSSASTKGPSVFPLAPSSKSTSGGTAALGCLVKDYFPEPVTVSWNSGALTSGVHTFPAVLQSSGLYSLSSVVTVPSSSLGTQTYICNVNHKPSNTKVDKKVEPKSCGGGGSGGGGSEVQLVQSGAEVKKPGSSVKVSCKASGYTFSSYVIHWVRQAPGQCLEWMGYINPYNDVIKYNEKFKGRVTLTSDKSTSTAYMELSSLRSEDTAVYYCARDSYYSYRGFAYWGQGTLVTVSSGGGGSGGGGSGGGGSGGGGSEIVLTQSPDFQSVTPKEKVTITCSASSSVSYMHWYQQKPDQSPKRLIYDTSKLASGVPSRFSGSGSGTDFTLTINSLEAEDAATYYCQQWSSNPPTFGCGTKVEIKGGGGSGGGGSDKTHTCPPCPAPEAAGGPSVFLFPPKPKDTLMISRTPEVTCVVVDVSHEDPEVKFNWYVDGVEVHNAKTKPREEQYNSTYRVVSVLTVLHQDWLNGKEYKCKVSNKALPAPIEKTISKAKGQPREPQVCTLPPSREEMTKNQVSLSCAVKGFYPSDIAVEWESNGQPENNYKTTPPVLDSDGSFFLVSKLTVDKSRWQQGNVFSCSVMHEALHNHYTQKSLSLSPGK
light: not shown
notes: CD19xCD3 Fab-scFv-Fab: two C19B Fabs, anti-CD3 scFv 40E9-L2H3-D105R.H; L234A/L235A
B5: ATG201-Y101F-19F (bispecific antibody, human IgG1, kappa, L234A L235A)
heavy 1: not shown
heavy 2: EVKLQESGPGLVAPSQSLSVTCTVSGVSLPDYGVSWIRQPPRKGLEWLGVIWGSETTYYNSALKSRLTIIKDNSKSQVFLKMNSLQTDDTAIYYCAKHYYYGGSYAMDYWGQGTSVTVSSASTKGPSVFPLAPSSKSTSGGTAALGCLVKDYFPEPVTVSWNSGALTSGVHTFPAVLQSSGLYSLSSVVTVPSSSLGTQTYICNVNHKPSNTKVDKKVEPKSCGGGGSGGGGSEVQLVQSGAEVKKPGSSVKVSCKASGYTFSSYVIHWVRQAPGQCLEWMGYINPYNDVIKYNEKFKGRVTLTSDKSTSTAYMELSSLRSEDTAVYYCARDSFYSYDGFAYWGQGTLVTVSSGGGGSGGGGSGGGGSGGGGSEIVLTQSPDFQSVTPKEKVTITCSASSSVSYMHWYQQKPDQSPKRLIYDTSKLASGVPSRFSGSGSGTDFTLTINSLEAEDAATYYCQQWSSNPPTFGCGTKVEIKGGGGSGGGGSDKTHTCPPCPAPEAAGGPSVFLFPPKPKDTLMISRTPEVTCVVVDVSHEDPEVKFNWYVDGVEVHNAKTKPREEQYNSTYRVVSVLTVLHQDWLNGKEYKCKVSNKALPAPIEKTISKAKGQPREPQVCTLPPSREEMTKNQVSLSCAVKGFYPSDIAVEWESNGQPENNYKTTPPVLDSDGSFFLVSKLTVDKSRWQQGNVFSCSVMHEALHNHYTQKSLSLSPGK
light: DIQMTQTTSSLSASLGDRVTISCRASQDISKYLNWYQQKPDGTVKLLIYHTSRLHSGVPSRFSGSGSGTDYSLTISNLEQEDIATYFCQQGNTLPYTFGGGTKLEITRTVAAPSVFIFPPSDEQLKSGTASVVCLLNNFYPREAKVQWKVDNALQSGNSQESVTEQDSKDSTYSLSSTLTLSKADYEKHKVYACEVTHQGLSSPVTKSFNRGEC
notes: CD19xCD3 Fab-scFv-Fab: two C19F Fabs, anti-CD3 scFv 40E9-L2H3-Y101F.H; L234A/L235A
B6: ATG201-N55S-19F (bispecific antibody, human IgG1, kappa, L234A L235A)
heavy 1: not shown
heavy 2: B5 heavy 2 with N288S, F334Y
light: B5 light
notes: CD19xCD3 Fab-scFv-Fab: two C19F Fabs, anti-CD3 scFv 40E9-L2H3-N55S.H; L234A/L235A

Assays:
CD3ε monomer = molecular target: T1, CD3ε monomer (UniProt P07766 23-126); experiment: ELISA, soluble protein coated at 0.2 or 2 ug/mL
T1 construct: also called nature CD3ε; denatured CD3ε monomer
T1 sequence (P07766 23-126): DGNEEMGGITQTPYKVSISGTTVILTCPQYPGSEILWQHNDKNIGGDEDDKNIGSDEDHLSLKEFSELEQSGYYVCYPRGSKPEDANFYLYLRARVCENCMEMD

[1] = molecular target: T2, CD3 on T cells / Jurkat cells (human, UniProt P07766 23-207; P04234 22-171; P09693 23-182); experiment: FACS on Jurkat cells expressing CD3
T2 construct: whole, on cells; Native CD3 complex on CD3+ T cells isolated from normal donors or on Jurkat cells; also called human CD3; CD3+ T cells
T2 sequence (P07766 23-207, chain 1 of 3): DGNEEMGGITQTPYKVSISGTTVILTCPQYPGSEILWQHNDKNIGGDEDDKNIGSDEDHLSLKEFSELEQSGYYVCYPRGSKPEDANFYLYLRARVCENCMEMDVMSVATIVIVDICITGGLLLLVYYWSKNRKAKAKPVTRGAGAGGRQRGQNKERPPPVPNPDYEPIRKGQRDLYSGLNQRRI
T2 sequence (P04234 22-171, chain 2 of 3): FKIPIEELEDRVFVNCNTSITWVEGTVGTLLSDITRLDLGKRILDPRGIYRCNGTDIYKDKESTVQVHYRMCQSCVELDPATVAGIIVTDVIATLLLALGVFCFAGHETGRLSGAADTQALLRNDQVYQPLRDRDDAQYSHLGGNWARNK
T2 sequence (P09693 23-182, chain 3 of 3): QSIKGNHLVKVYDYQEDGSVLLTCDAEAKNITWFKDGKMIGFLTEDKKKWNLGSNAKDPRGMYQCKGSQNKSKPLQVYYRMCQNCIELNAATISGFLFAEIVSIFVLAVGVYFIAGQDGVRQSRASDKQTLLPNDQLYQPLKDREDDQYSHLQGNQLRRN

[2] = molecular target: T3, CD19 on NALM6 cells, Raji cells and primary B cells (human, UniProt P15391 20-556); experiment: FACS on NALM6 cells expressing CD19 (FIG. 45A)
T3 construct: whole, on cells; Endogenous CD19 on human cell lines / donor B cells; also called NALM6 cells expressing CD19; Raji cells expressing CD19
T3 sequence (looked up): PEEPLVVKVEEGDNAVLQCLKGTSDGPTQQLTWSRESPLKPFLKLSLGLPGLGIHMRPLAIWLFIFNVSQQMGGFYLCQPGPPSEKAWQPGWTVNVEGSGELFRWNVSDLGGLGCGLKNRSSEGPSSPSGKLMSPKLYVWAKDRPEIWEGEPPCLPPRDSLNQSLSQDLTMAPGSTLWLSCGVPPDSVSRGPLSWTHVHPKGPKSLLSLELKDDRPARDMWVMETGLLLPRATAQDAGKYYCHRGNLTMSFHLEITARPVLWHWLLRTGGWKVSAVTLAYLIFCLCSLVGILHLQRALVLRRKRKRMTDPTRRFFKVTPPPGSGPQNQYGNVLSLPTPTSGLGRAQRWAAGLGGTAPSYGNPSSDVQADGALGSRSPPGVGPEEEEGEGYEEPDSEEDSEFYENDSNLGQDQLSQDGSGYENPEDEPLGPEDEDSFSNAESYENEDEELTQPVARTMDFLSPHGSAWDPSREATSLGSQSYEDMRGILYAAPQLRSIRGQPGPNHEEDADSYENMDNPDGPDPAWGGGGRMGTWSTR

[3] = molecular target: T3, CD19 on NALM6 cells, Raji cells and …; experiment: FACS on primary B cells from healthy donors' PBMC (FIG. 45D)
Method: (§1) To evaluate the binding affinity of the generated bispecific antibodies to NALM6 cells, Raji cells, Primary B cells, DoHH2 cells, SU-DHL-1 cells and Jurkat cells, the NALM6 cells expressing CD19, Raji cells expressing CD19, Primary B cells, DoHH2 cells expressing CD20, SU-DHL-1 cells without expressing CD19 or CD20 and Jurkat cells expressing CD3 were stained by the test antibodies and the binding affinity was determined by FACS analysis. Primary B cells were isolated from healthy donors' PBMC by human B cell enrichment Kit (Stemcell #19054). The protocol of FACS analysis is described as follows: [0933] (a) The cells from each cell line above were harvested and centrifuged at 300 g for 5 min, and the supernatant were discarded. […] (b) The cells were washed 2 times with FACS buffer. [0935] (c) Step (a) was repeated. [0936] […] [0937] (e) Step (b) was repeated and the cells were resuspended with 100 μl/well diluted secondary antibody, and incubated at 4° C. for 45 minutes in the dark. [0938] (f) Step (b) was repeated and the cells were resuspended the cells with 150 μl/well FACS buffer and kept in dark for FACS analysis.

[4] = molecular target: T3, CD19 on NALM6 cells, Raji cells and …; experiment: FACS on Raji cells expressing CD19 (FIG. 45C)
Method: as §1

[5] = molecular target: T3, CD19 on NALM6 cells, Raji cells and …; experiment: FACS on NALM6 cells expressing CD19, another experiment (FIG. 45B)
Method: as §1

| Binder | binding result (CD3ε monomer) | binding result [1] | EC50 [2] [nM] | EC50 [3] [nM] | EC50 [4] [nM] | EC50 [5] [nM] |
| --- | --- | --- | --- | --- | --- | --- |
| B1 | no binding | – | – | – | – | – |
| B2 | no binding | – | – | – | – | – |
| B3 | no binding | – | – | – | – | – |
| B4 | – | binds | 2.9 | – | – | – |
| B5 | – | binds | 4.36 | 0.468 | 1.13 | 0.609 |
| B6 | – | binds | 4.91 | 1.08 | 1.5 | 0.847 |
